Primed or numbered codes have the meaning given here. The star is where a group is joined. AOMK(3) = acyloxymethyl ketone at C-terminal Arg; Biotin = O=C1N[C@H]2[C@H](CS[C@H]2CCCCC(=O)*)N1
Tests used:
[1] = target: active endogenous MALT1 (stimulated Jurkat T cells, stimulated primary human PBMCs and T cells, ABC DLBCL cells) (human) (UniProt Q9UDY8); assay: probe 7 pulldown with streptavidin beads; supernatant tested with probe 6
[2] = target: active endogenous MALT1 (stimulated Jurkat T cells, stimulated primary human PBMCs and T cells, ABC DLBCL cells) (human) (UniProt Q9UDY8); assay: ELISA-type assay on streptavidin-coated plates, 2×10^6 Jurkat T cells

B1: probe 7 (biotin-coupled; Ac-Lys(biotin)-LRSR-AOMK) (peptide)
peptide: Ac-K(Biotin)LRSR-{AOMK(3)}
**Q.** B1 was tested. Which probe concentration sufficient to completely remove active MALT1 from the extracts [1] did it give?
**A.** Its probe concentration sufficient to completely remove active MALT1 from the extracts is 100 nM.

**Q.** And the probe concentration sufficient to obtain a robust increase in active MALT1 [2]?
**A.** Its probe concentration sufficient to obtain a robust increase in active MALT1 is under 10 nM.

From patent US20160327558A1
